In patent US5684129:

How the values were obtained:
[1] = target: Type 1 human interferon receptor complex (human) (UniProt P17181)
[2] = target: Type 1 human interferon receptor complex (human) (UniProt P17181); assay: 125I-ligand binding to T98G cells at +4° C., Scatchard analysis, high affinity component

antiviral specific activity (EMCV on T98G cells) [1] [U/mg protein] | Kd [2] [pM] | Substance
7.1e+06 |  | IFN-alpha1 Nδ4 (ligand)
3e+09 | 7.7 | IFN-alphaCon1 (ligand)
